Source: article PMC10121901

What was measured:
[1] = target: CA-N21C A22C (CA spheres) (HIV-1); test: co-sedimentation
[2] = target: CA-N21C A22C (CA spheres) (HIV-1); test: negative-stain EM of NuPODs mixed with CA assemblies
[3] = target: CA-A14C E45C (disulfide-crosslinked CA tubes; also assembled into cones with IP6) (HIV-1); test: as above

Row | Substance | percent of NuPODs in the supernatant (with the CA spheres) [1] | fold preference for binding to spheres over tubes (NuPODs in excess) [2] | percent of NuPODs bound to CA spheres and CA tubes at the same time [3] | percent of NuPODs bound to CA spheres and CA tubes at the same time [2]
1 | MBP-Nup153^(CTD, aa 896–1475) (from UniProt P49790 896-1475) (domain or fragment) | 95% | 60 fold |  | 
2 | Nup358^(RBD4-CycH, aa 2911–3225) (from UniProt P49792 2911-3224) (domain or fragment) |  |  | 20 to 50% | 20 to 50%
